# Experimental data reported in paper PMC5864733.
# Tests used:
# Assay in all cases: SEC
# [1] = biological target: CesT-E121A (residues 1-156, E121A) (enteropathogenic E. coli (EPEC) O127:H6 E2348/69) (UniProt P21244)
# [2] = biological target: CesT-E121A/Y152A (residues 1-156, E121A + Y152A) (enteropathogenic E. coli (EPEC) O127:H6 E2348/69) (UniProt P21244)
# [3] = biological target: CesT-Y152A (residues 1-156, Y152A) (enteropathogenic E. coli (EPEC) O127:H6 E2348/69) (UniProt P21244)
# [4] = biological target: CsrA (residues 1-61), GST tag removed (enteropathogenic E. coli (EPEC) O127:H6 E2348/69) (UniProt P69913)
# [5] = biological target: CsrA tetra-mutant (residues 1-61, R31A + K38A + H43A + R44A) (enteropathogenic E. coli (EPEC) O127:H6 E2348/69) (UniProt P69913)
# [6] = biological target: CsrA-Cdel (residues 1-44) (enteropathogenic E. coli (EPEC) O127:H6 E2348/69) (UniProt P69913)
substance,measurement,setting,value
"CesT-E121A (residues 1-156, E121A) (from UniProt P21244 1-156) (natural protein)",stoichiometry N,[1],2
"CesT-E121A/Y152A (residues 1-156, E121A + Y152A) (from UniProt P21244 1-156) (natural protein)",stoichiometry N,[2],2
"CesT-Y152A (residues 1-156, Y152A) (from UniProt P21244 1-156) (natural protein)",stoichiometry N,[3],2
"CsrA (residues 1-61), GST tag removed, P69913 1-61 (natural protein; other documents disagree on this pair)",stoichiometry N,[4],2
"CsrA tetra-mutant (residues 1-61, R31A + K38A + H43A + R44A) (from UniProt P69913 1-61) (natural protein)",stoichiometry N,[5],2
CsrA-Cdel (residues 1-44) (from UniProt P69913 1-44) (domain or fragment),stoichiometry N,[6],2
